Measurements taken from the Immune Epitope Database (IEDB).

How the values were obtained:
HLA-B*07:02 [1] = assay: IEDB peptide-MHC binding, purified MHC/direct/fluorescence; filed as Kd, often an IC50 or EC50 that approximates it; ≥ and ≤ were set here for values at or beyond the usual limits of such assays
HLA-B*27:03 = assay: IEDB peptide-MHC binding, purified MHC/competitive/fluorescence; filed as Kd, often an IC50 or EC50 that approximates it; ≥ and ≤ were set here for values at or beyond the usual limits of such assays; details: source organism: Pan troglodytes
HLA-A*02:01 [2] = assay: as above; details: source organism: Pan troglodytes
HLA-B*07:02 [3] = assay: IEDB peptide-MHC binding, purified MHC/competitive/radioactivity; filed as Kd, often an IC50 or EC50 that approximates it; ≥ and ≤ were set here for values at or beyond the usual limits of such assays
HLA-B*51:01 = assay: as above
HLA-B*35:01 = assay: as above
HLA-B*53:01 = assay: as above
HLA-B*54:01 = assay: as above
HLA-A*01:01 [4] = assay: IEDB peptide-MHC binding, purified MHC/competitive/fluorescence; filed as Kd, often an IC50 or EC50 that approximates it; ≥ and ≤ were set here for values at or beyond the usual limits of such assays
HLA-B*57:01 = assay: IEDB peptide-MHC binding, purified MHC/direct/fluorescence; filed as Kd, often an IC50 or EC50 that approximates it; ≥ and ≤ were set here for values at or beyond the usual limits of such assays; details: source organism: Burkholderia thailandensis
HLA-B*58:01 = assay: as above
HLA-B*15:01 [5] = assay: IEDB peptide-MHC binding, purified MHC/competitive/radioactivity; filed as Kd, often an IC50 or EC50 that approximates it; ≥ and ≤ were set here for values at or beyond the usual limits of such assays; details: source organism: Vaccinia virus WR
HLA-A*01:01 [6] = assay: IEDB peptide-MHC binding, purified MHC/direct/fluorescence; filed as Kd, often an IC50 or EC50 that approximates it; ≥ and ≤ were set here for values at or beyond the usual limits of such assays; details: source organism: Giardia lamblia ATCC 50803
HLA-B*40:01 = assay: as above; details: source organism: Giardia lamblia ATCC 50803
HLA-B*27:05 = assay: as above; details: source organism: Giardia lamblia ATCC 50803
HLA-B*15:01 [7] = assay: as above; details: source organism: Giardia lamblia ATCC 50803
HLA-B*08:01 = assay: as above; details: source organism: Giardia lamblia ATCC 50803
HLA-A*11:01 = assay: as above; details: source organism: Giardia lamblia ATCC 50803
HLA-A*02:01 [8] = assay: as above; details: source organism: Giardia lamblia ATCC 50803
HLA-A*03:01 = assay: as above; details: source organism: Giardia lamblia ATCC 50803
HLA-A*69:01 = assay: as above; details: source organism: Giardia lamblia ATCC 50803
HLA-A*26:01 = assay: as above; details: source organism: Giardia lamblia ATCC 50803
[9] = source organism: Vaccinia virus WR
[10] = source organism: SARS coronavirus Tor2
[11] = source organism: Giardia lamblia ATCC 50803

**Q.** RVLTARKTV was tested. Which Kd (HLA-B*07:02 [1]; source organism: Ovis aries) did it give?
**A.** 0.417 µM

**Q.** And the Kd (HLA-B*27:03)?
**A.** ≥ 20 µM

**Q.** What about the Kd (HLA-A*02:01 [2]) of the same sequence?
**A.** ≥ 20 µM

**Q.** Which Kd (HLA-B*07:02 [3]; [9]) does the source give for SPLTLLIKTL here?
**A.** 1.12 µM

**Q.** And the Kd (HLA-B*51:01; [9])?
**A.** ≥ 57.3 µM

**Q.** What about the Kd (HLA-B*35:01; [9]) of the same sequence?
**A.** ≥ 69.9 µM

**Q.** What about the Kd (HLA-B*53:01; [9]) of the same sequence?
**A.** ≥ 30 µM

**Q.** And the Kd (HLA-B*54:01; [9])?
**A.** ≥ 69.9 µM

**Q.** Which Kd (HLA-A*01:01 [4]; source organism: Influenza A virus (A/Swine/Indiana/9K035/99 (H1N2))) does the source give for STSADQQSLY here?
**A.** 0.0187 µM

**Q.** What does the source list for TPIFSDLLKY?
**A.** Kd (HLA-B*07:02 [3]; [9]): 0.00346 µM; Kd (HLA-B*51:01; [9]): ≥ 44.8 µM; Kd (HLA-B*35:01; [9]): 12.7 µM; Kd (HLA-B*53:01; [9]): 3.61 µM; Kd (HLA-B*54:01; [9]): 12.8 µM

**Q.** With WADMPLHQW as the sequence, how does the Kd (HLA-B*57:01) read?
**A.** 0.469 µM

**Q.** What about the Kd (HLA-B*58:01; source organism: Burkholderia thailandensis) of the same sequence?
**A.** 0.009 µM

**Q.** With WPWYVWLGFI as the sequence, how does the Kd (HLA-B*07:02 [3]; [10]) read?
**A.** ≥ 51.8 µM

**Q.** And the Kd (HLA-B*51:01; [10])?
**A.** 11.1 µM

**Q.** And the Kd (HLA-B*35:01; [10])?
**A.** ≥ 69.9 µM

**Q.** What about the Kd (HLA-B*53:01; [10]) of the same sequence?
**A.** 4.57 µM

**Q.** What about the Kd (HLA-B*54:01; [10]) of the same sequence?
**A.** 15.5 µM

**Q.** How did the Kd (HLA-A*01:01 [4]; source organism: Influenza A virus (A/goose/Guangdong/1/1996(H5N1))) turn out when WVSFNQNLEY was run?
**A.** 0.0977 µM

**Q.** For YIILFILFF, which Kd (HLA-B*15:01 [5]) is on record?
**A.** 5.24 µM

**Q.** Which results are given for YTDDYPMYK?
**A.** Kd (HLA-B*07:02 [1]; [11]): ≥ 20 µM; Kd (HLA-A*01:01 [6]): 0.0189 µM; Kd (HLA-B*40:01): ≥ 20 µM; Kd (HLA-B*27:05): ≥ 20 µM; Kd (HLA-B*15:01 [7]): ≥ 20 µM; Kd (HLA-B*08:01): ≥ 20 µM; Kd (HLA-A*11:01): 0.04 µM; Kd (HLA-A*02:01 [8]): ≥ 20 µM; Kd (HLA-B*58:01; [11]): ≥ 20 µM; Kd (HLA-A*03:01): 0.359 µM; Kd (HLA-A*69:01): 0.127 µM; Kd (HLA-A*26:01): ≥ 20 µM
